The target in this assay is T1, IFNAR2 extracellular domain (UniProt P48551 27-243, limits assumed).
T1 construct: extracellular domain; It was immobilized on a CM5 Biacore chip by lysine-specific coupling; also called IFNAR2ECD; IFNAR ECD
T1 sequence (looked up): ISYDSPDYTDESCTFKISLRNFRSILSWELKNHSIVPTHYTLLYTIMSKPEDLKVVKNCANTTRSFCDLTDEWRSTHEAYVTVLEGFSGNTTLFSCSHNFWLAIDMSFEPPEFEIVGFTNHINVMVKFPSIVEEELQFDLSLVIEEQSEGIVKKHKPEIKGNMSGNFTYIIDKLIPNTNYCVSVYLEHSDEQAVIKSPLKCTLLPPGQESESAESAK
The assay is described as follows: Biacore SPR, IFNAR2 ECD immobilized on CM5 chip, IFN injected, 1:1 model, average Kd. As for the experimental part:
The refolding reaction was then concentrated to 25 ml using an Amicon stirring cell, and dialyzed overnight against 20 mM Tris, pH 8, 20 mM NaCl, 10% glycerol. Monomeric refolded IFNAR ECD was purified on HP Q Sepharose using the AKTA FPLC system (Amersham). Purified IFNAR2ECD was immobilized on CM5 Biacore chip using a lysine-specific coupling procedure recommended by the manufacturer. About 200 RUs of functional protein were immobilized. Various concentrations of IFN beta variants in HBS-EP buffer (Biacore) were injected at a flow rate of 50 mcl/minute over the flowcell containing immobilized IFNAR2, and a control flowcell containing immobilized bovine serum albumin. Sensograms generated were fit to the 1:1 interaction model to calculate kₒₙ, koff and Kd values using BiaEvaluation software (Biacore).
On the technique in general: SPR reads the build-up and loss of mass on a sensor chip optically.

Kd data for one molecule are collected here from US20090208454A1 (AMBRX, published 2009).

What is called Kd is a measure of binding affinity in units of concentration. Read a high Kd as lower affinity.

B1: (C17S)-IFNβ (ligand)
chain: MSYNLLGFLQRSSNFQSQKLLWQLNGRLEYCLKDRMNFDIPEEIKQLQQFQKEDAALTIYEMLQNIFAIFRQDSSSTGWNETIVENLLANVYHQINHLKTVLEEKLEKEDFTRGKLMSSLHLKRYYGRILHYLKAKEYSHCAWTIVRVEILRNFYFINRLTGYLRN
notes: also called IFN beta with C17S substitution; (C17S)-IFN beta
On to B1, for which binding was characterised by a dissociation constant (Kd) of 0.8 nM. This counts as sub-nanomolar.
